# According to article PMC4824444:
# Tests used:
# [1] = target: kappa-opioid peptide (KOP) receptor (human (endogenous in THP-1)) (UniProt P41145)
# [2] = target: kappa-opioid peptide (KOP) receptor (human (endogenous in THP-1)) (UniProt P41145); remark: listed apart in the source
# UniProt P41145, sequence (P41145 whole entry): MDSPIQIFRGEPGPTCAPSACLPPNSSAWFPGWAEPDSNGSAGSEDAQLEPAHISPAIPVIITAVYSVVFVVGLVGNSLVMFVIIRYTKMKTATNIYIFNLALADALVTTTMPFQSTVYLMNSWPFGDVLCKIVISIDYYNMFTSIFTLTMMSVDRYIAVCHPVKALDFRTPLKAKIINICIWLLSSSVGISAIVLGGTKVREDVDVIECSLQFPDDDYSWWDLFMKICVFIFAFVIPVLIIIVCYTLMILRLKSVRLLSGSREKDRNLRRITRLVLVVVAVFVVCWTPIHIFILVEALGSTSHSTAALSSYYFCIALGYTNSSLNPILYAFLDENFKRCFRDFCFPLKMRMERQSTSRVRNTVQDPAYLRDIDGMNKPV
substance,measurement,setting,value
Dynorphin 1-7 (peptide),"inhibition of LPS-stimulated NF-κB/p65 nuclear translocation in differentiated THP-1 cells by DYN 1-7 at 10 nM, relative to the LPS control group; reversed by the KOP receptor antagonist ML-190 (1 μM)",[1],44%
same,"reduction of LPS-stimulated IL-1β and TNF-α release from differentiated THP-1 cells by DYN 1-7 (0.1 μM, 1 nM, 10 pM; 24 hr; AlphaLISA); reversed by ML-190 at 10 pM (IL-1β, TNF-α) and at 1 nM (TNF-α)",[2],15 to 30%
